Values joined by “and” are separate entries in the source; they are usually repeats but may differ in a detail not shown here. Equal values may be shown once.
Tests used:
Max-E47 protein chimera [1] = target: Max-E47 protein chimera (UniProt P61244); assay: AUC; sedimentation equilibrium, 16.0°C, 14,000-35,000 rpm, Rayleigh interference; 20 mM Tris pH 8.0, 0.15 M NaCl, 10 mM 2-mercaptoethanol; loading concentrations 5-25; the constant is of dimer to monomers
Max-E47 protein chimera [2] = target: Max-E47 protein chimera (UniProt P61244); assay: SEC; Superdex-75 column, against molecular weight markers
Max-E47 protein chimera [3] = target: Max-E47 protein chimera (UniProt P61244); assay: AUC; sedimentation velocity, 20.0°C, 50,000 rpm, Rayleigh interference; loading concentrations 3-130 µM; 20 mM Tris pH 8.0, 0.1 M NaCl, 10 mM 2-mercaptoethanol, 5% (v/v) glycerol
[4] = target: Max-E47YF cloning variant (Max-E47-V51Y/V59F) (UniProt P61244); assay: AUC; sedimentation equilibrium, 16.0°C, 14,000-35,000 rpm, Rayleigh interference; 20 mM Tris pH 8.0, 0.15 M NaCl, 10 mM 2-mercaptoethanol; loading concentrations 5-25; the constant is of dimer to monomers

stoichiometry N (Max-E47 protein chimera [1])	stoichiometry N (Max-E47 protein chimera [2])	stoichiometry N (Max-E47 protein chimera [3])	Kd [4]	stoichiometry N [4]	Substance
2 and 4	2	2 and 4			Max-E47 protein chimera (from UniProt P61244 22-36; P15923-2 349-400) (designed binder)
			< 1 nM	2	Max-E47YF cloning variant (Max-E47-V51Y/V59F) (from UniProt P61244 22-36) (designed binder)

— publication PMC3289634
